From patent publication US7550429B2, “Glycoproteins having lipid mobilising properties and therapeutic applications thereof” (Aston University, priority 1998, dated 2009)

Assays:
[1] = tested on: murine adipocyte plasma membrane adenylate cyclase; experiment: Adenylate cyclase assay with adipocyte plasma membranes; format: biochemical, mouse; conditions: GTP-dependent stimulation
Method: In a typical procedure white adipocytes were isolated from mouse epididymal fat pads as referred to above except that the cells were washed in 250 mM sucrose, 2 mM ethyleneglycol bis(β-aminoethylether)-N,N,N′,N′ (EGTA), 10 mM Tris-HCl (pH 7.4). Adipocytes were resuspended in 20 ml of the above buffer and homogenised by aspirating through a Swinny filter at least 10 times. The cell homogenate was then centrifuged at 300 g for 5 min, the fat cake removed from the surface and the remaining pellet and infranatant transferred to clean tubes. These were centrifuged at 30,000 g for 1 h at 4° C. and the membrane pellet formed was resuspended in the sucrose buffer (200 to 400 μl). Plasma membranes were separated from other organelle membranes on a self-forming gradient of Percoll™ colloidial silica particles. […]
An adenylate cyclase assay used was based on that developed by Salomon et al. (reference 16). […] Background binding was determined by running samples without [α-^32P] […]
Samples containing labelled nucleotides were diluted to 1 ml with water and loaded onto Dowex™ 50W8-400 ion-exchange columns primed with 10 ml of water. […] The radioactivity was determined using a Tri-carb™ 2000A scintillation analyser.

[2] = tested on: murine epididymal adipocytes; experiment: Lipolytic assay: glycerol release from isolated adipocytes; format: cell-based, mouse; conditions: for Stimulation of glycerol release (lipolysis): different doses, freshly isolated murine epididymal adipocytes, FIG. 9; for Lipid mobilizing activity, glycerol released: 5 μg human or 10 μg mouse LMF, incubated overnight at 4° C. with or without pAb 10 μg, mean±SEM, three determinations; for Specific activity: purified product after final stage HPLC Resource-iso
Method: Single cell suspensions of white adipocytes were prepared from finely minced epididymal fat pads of male BKW mice using collagenase digestion, substantially as described by S. A. Beck et al. (see above-mentioned reference 14). Samples to be assayed were incubated with 10^5-2×10^5 adipocytes (determined by means of a haemocytometer) for 2 h at 37° C. in 1 ml of Krebs-Ringer bicarbonate buffer, pH 7.2. The concentration of glycerol released was determined enzymatically by the method of Wieland as referred to above (see also GB2217330A). Control samples containing adipocytes alone were analyzed to determine the spontaneous glycerol release. Lipid mobilizing activity was expressed as μmol glycerol released/10^5 adipocytes/2 h.

[3] = tested on: ob/ob mice; experiment: In vivo effect of iv LMF in obese ob/ob mice; parameters: species or system mouse
Method: (§1) Non-esterified fatty acids (NEFA) were determined using a Wako-ASC-ACOD kit (Wako Chemical GmbH, Neuss, Germany). Triglycerides were determined using a Triglyceride kit (Sigma Chemical Co., Poole, United Kingdom) and 3-hydroxybutyrate by a quantitative enzymatic determination kit (Sigma). Glucose was measured using a glucose analyser (Beckman, Irvine, Calif.) and glycerol was determined enzymatically using the method of Wieland as described in “Methods of Enzymatic Analysis” (Ed. Bergmeyer, H. U.) Vol. 3, pp 1404-1409, published by Academic Press, London (1974) (reference 13).
FIG. 11 is a diagram similar to FIG. 10 showing change in body weight of ob/ob mice produced by iv administration of LMF (35 μg) (o) isolated from human urine as described in Example 2 and of control mice (x) administered PBS by iv injection. LMF was injected at times 0, 16, 24, 40, 48, 64, 72, 90, 96, 113, 120, 137 and 144 h; PBS was injected at the same time points. The animals were killed 160 h after the first injection. Results are expressed as mean±SEM for 5 animals per group.
As shown in FIG. 11 and by the data in Table 6, intravenous administration to obese ob/ob mice of LMF (35 μg) isolated from human urine produced a similar result. There was a decrease in total body weight which became significant within 24 h of the first injection and remained below that of the control group over the 160 h of the experiment.

[4] = tested on: ex-breeder male NMRI mice; experiment: In vivo fat depletion, iv LMF in ex-breeder male NMRI mice; parameters: species or system mouse
Method: as §1
FIG. 10 is a diagram showing change in body weight of ex-breeder male NMRI mice (30-40 g) produced by intravenous (iv) administration of LMF (8 μg) isolated from human urine as described in Example 2 (o) and of control mice administered PBS by iv injection (x).
In order to determine if the purified LMF isolated from human urine as in Example 2 was capable of fat depletion in vivo a sample of this LMF material ([…]) was injected into male ex breeder NMRI mice over a 72 h period. The LMF was injected at times 0, 17, 24, 41, 48, 62 and 72 hours and control mice were similarly injected with phosphate-buffered saline (PBS) at the same time points. The animals were killed at 89 h and the body composition and serum metabolite levels were determined. […] Changes in the body composition and serum metabolic levels are summarised in Table 5 and it will be seen that total body weight decreased by 3.6 g during the overall 89 h period of the experiment without change in food and water intake. […] Despite the fat mobilisation there were significant reductions in the serum concentrations of non-esterified fatty acids (NEFA), glycerol and glucose in mice receiving LMF.

[5] = LMF 35 μg iv, 160 h after first injection
[6] = LMF 8 μg iv over 72 h, killed at 89 h

B1: Zn-α2-glycoprotein (protein, listed as Homo sapiens)
chain: QENQDGRYSLTYIYTGLSKHVEDVPAFQALGSLNDLQFFRYNSKDRKSQPMGLWRQVEGMEDWKEDSQLQKAREDMETLKDIVEYYNDSNGSHVLQGRFGCEIENNRSSGAFWKYYYDGKDYIEFNKEIPAWVPFDPAAQITKQKWEAEPVYVQRAKAYLEEECPATLRKYLKYSKNILDRQDPPSVVVTSHQAPGEKKKLKCLAYDFYPGKIDVHWTRAGQVQEPELRGDVLHNGNGTYQSWVVVAVPPQDTAPYSCHVQHSSLAQPLVVPWEAS
notes: Zn-α2-glycoprotein purified about 670-fold from fresh human plasma by the method of Ohkubo et al
GTP concentration at maximal stimulation of adenylate cyclase [1]: 0.1 µM
Stimulation of glycerol release (lipolysis) [2]: stimulated glycerol release with a comparable dose-response profile

B2: Human LMF: 43 kDa glycoprotein lipid mobilising factor purified from urine of cachectic cancer patients (Example 2); Zn-α2-glycoprotein type (protein, UniProt P25311 21-298, looked up)
Zinc-alpha-2-glycoprotein: QENQDGRYSLTYIYTGLSKHVEDVPAFQALGSLNDLQFFRYNSKDRKSQPMGLWRQVEGMEDWKQDSQLQKAREDIFMETLKDIVEYYNDSNGSHVLQGRFGCEIENNRSSGAFWKYYYDGKDYIEFNKEIPAWVPFDPAAQITKQKWEAEPVYVQRAKAYLEEECPATLRKYLKYSKNILDRQDPPSVVVTSHQAPGEKKKLKCLAYDFYPGKIDVHWTRAGEVQEPELRGDVLHNGNGTYQSWVVVAVPPQDTAPYSCHVQHSSLAQPLVVPWEAS
GTP concentration at maximal stimulation of adenylate cyclase [1]: 0.1 µM
Final body weight ([3]; LMF 35 μg iv, 13 injections over 144 h, 160 h after first injection, mean±SEM, 5 mice): 69.5 ± 4.3 g
Body composition: Fat [3, 5]: 30.6 ± 0.7%
Body composition: Non Fat [3, 5]: 17.4 ± 1.0%
Body composition: Water [3, 5]: 53.7 ± 1.1%
Glucose [3, 5]: 260 ± 12 mg/100 ml
Oxygen uptake [3, 5]: 0.55 ± 0.07 μl/mgBAT/h
Serum 3-Hydroxybutyrate [3, 5]: 0.44 ± 0.01 mM
Serum Glycerol [3, 5]: 5.31 ± 0.45 mM
Serum NEFA [3, 5]: 1.45 ± 0.45 mEq/l
Carcass fat ([3]; LMF 35 μg iv, body composition analysis at 160 h): 21.09 ± 0.99 g
Time until decrease in total body weight became significant ([3]; after the first injection, FIG. 11): ≤ 24 h
Initial body weight ([3]; baseline before first injection): 67.9 ± 2.9 g
Food intake ([4]; LMF 8 μg iv over 72 h): 8.0 ± 0.2 g/day
Water intake ([4]; LMF 8 μg iv over 72 h): 4.4 ± 0.4 mL/day
Body composition: Fat [4, 6]: 3.4 ± 0.4 g
Body composition: Non Fat [4, 6]: 9.6 ± 0.9 g
Body composition: Water [4, 6]: 18.3 ± 0.8 g
Serum Glucose [4, 6]: 186 ± 0.08 mg/100 ml
Serum Glycerol [4, 6]: 6.73 ± 0.45 mM
Serum NEFA [4, 6]: 0.95 ± 0.03 mEq/l
Final body weight ([4]; LMF 8 μg iv, 7 injections over 72 h, killed at 89 h, mean±SEM, 5 mice): 31.6 ± 2.2 g
Time until body weight significantly lower than PBS treated controls ([4]; LMF iv, FIG. 10): ≤ 41 h
Reduction in body fat content ([4]; body composition analysis at 89 h): 42%
Decrease in total body weight ([4]; overall 89 h period, no change in food and water intake): 3.6 g
Lipid mobilizing activity, glycerol released [2]: 0.0062 ± 0.0002 μmole glycerol/10^5 adipocytes/2 h
Stimulation of glycerol release (lipolysis) [2]: stimulated glycerol release with a comparable dose-response profile
Specific activity [2]: 164.3 μmol/10^5 adipocytes/mg protein
Effect of α-chymotrypsin digestion on in vitro biological activity ([2]; α-chymotrypsin digestion): chymotrypsin destroyed the in vitro biological activity

B3: Mouse LMF: 43 kDa glycoprotein lipid mobilising factor purified from murine adenocarcinoma MAC16 (Example 1) (protein, UniProt Q64726 18-307, looked up)
Zinc-alpha-2-glycoprotein: QETGSYYLTFLYTGLSRPSKGFPRFQATAFLNDQAFFHYNSNSGKAEPVGPWSQVEGMEDWEKESQLQRAREEIFLVTLKDIMDYYKDTTGSHTFQGMFGCEITNNRSSGAVWRYAYDGEDFIEFNKEIPAWIPLDPAAANTKLKWEAEKVYVQRAKAYLEEECPEMLKRYLNYSRSHLDRIDPPTVTITSRVIPGGNRIFKCLAYGFYPQRISLHWNKANKKLAFEPERGVFPNGNGTYLSWAEVEVSPQDIDPFFCLIDHRGFSQSLSVQWDRTRKVKDENNVVAQPQ
Lipid mobilizing activity, glycerol released [2]: 0.0977 ± 0.02 μmole glycerol/10^5 adipocytes/2 h
Specific activity [2]: 50 μmol/10^5 adipocytes/mg protein
